These results are taken from US20250320281A1.

Test [1] addresses HIV-1 ADA Env (HIV-1 ADA). Briefly: cell-based or functional assay.
Test [2] has as its target HIV-1 92BR020 Env on pseudotyped virus (HIV-1 isolate 92BR020). Briefly: cell-based or functional assay.
For test [3], the target named is HIV-1 Env of pseudovirus MGRM-A-007 (subtype A) (HIV-1). Briefly: cell-based or functional assay.
The target in test [4] is HIV-1 Env of pseudovirus MGRM-A-009 (subtype A) (HIV-1). As to the kind of experiment: cell-based or functional assay.
Test [5] concerns the target HIV-1 Env of pseudovirus MGRM-A-005 (subtype A) (HIV-1). Briefly: cell-based or functional assay.
The target of test [6] is HIV-1 Env of pseudovirus MGRM-A-003 (subtype A) (HIV-1). As to the kind of experiment: cell-based or functional assay.
Test [7] has as its target HIV-1 Env of isolate MGRM-Chronic-B-023 (HIV-1). As to the kind of experiment: cell-based or functional assay.
For test [8], the target named is HIV-1 Env of isolate MGRM-Chronic-B-008 (HIV-1). Briefly: cell-based or functional assay.
Test [9] has as its target HIV-1 Env of isolate MGRM-Chronic-B-010 (HIV-1). Briefly: cell-based or functional assay.
Test [10] has as its target HIV-1 Env of pseudovirus 94UG103 (subtype A) (HIV-1). Briefly: cell-based or functional assay.
For test [11], the target named is HIV-1 Env of isolate CAAN.A2 (HIV-1). Briefly: cell-based or functional assay.
For test [12], the target named is HIV-1 Env of isolate MG RM-D-028 (clade D), on pseudovirus (HIV-1). Briefly: cell-based or functional assay.
Test [13] concerns the target HIV-1 Env of isolate MGRM-Chronic-B-017 (HIV-1). As to the kind of experiment: cell-based or functional assay.
Test [14] deals with HIV-1 Env of pseudovirus 93WR029 (subtype A) (HIV-1). Briefly: cell-based or functional assay.
Test [15] has as its target HIV-1 Env of isolate MGRM-C-025 (clade C pseudovirus) (HIV-1). As to the kind of experiment: cell-based or functional assay.
For test [16], the target named is HIV-1 Env of isolate MG RM-D-016 (clade D), on pseudovirus (HIV-1). Briefly: cell-based or functional assay.
In test [17] the target is HIV-1 Env of pseudovirus 92WR009 (subtype A) (HIV-1). Briefly: cell-based or functional assay.
The target in test [18] is HIV-1 Env of pseudovirus 92WR024 (subtype A) (HIV-1). Briefly: cell-based or functional assay.
The target in test [19] is HIV-1 Env of isolate MG RM-D-026 (clade D), on pseudovirus (HIV-1). As to the kind of experiment: cell-based or functional assay.
The target in test [20] is HIV-1 Env of isolate MGRM-F1-013 (clade F), on pseudovirus (HIV-1). Briefly: cell-based or functional assay.
Test [21] concerns the target HIV-1 Env of isolate MG RM-D-012 (clade D), on pseudovirus (HIV-1). Briefly: cell-based or functional assay.
The target of test [22] is HIV-1 Env of isolate MGRM-Chronic-B-002 (HIV-1). Briefly: cell-based or functional assay.
Test [23] concerns the target HIV-1 Env of isolate MGRM-Chronic-B-012 (HIV-1). Briefly: cell-based or functional assay.
For test [24], the target named is HIV-1 Env of isolate MG RM-D-003 (clade D), on pseudovirus (HIV-1). Briefly: cell-based or functional assay.
Test [25] has as its target HIV-1 Env of pseudovirus 92UG031 (subtype A) (HIV-1). As to the kind of experiment: cell-based or functional assay.
Test [26] addresses HIV-1 Env of pseudovirus 92WR021 (subtype A) (HIV-1). Briefly: cell-based or functional assay.
Test [27] concerns the target HIV-1 Env of isolate MGRM-C-024 (clade C pseudovirus) (HIV-1). As to the kind of experiment: cell-based or functional assay.
For test [28], the target named is HIV-1 Env of isolate APV6 (HIV-1). As to the kind of experiment: cell-based or functional assay.
The target of test [29] is HIV-1 Env of pseudovirus 92RW008 (subtype A) (HIV-1). As to the kind of experiment: cell-based or functional assay.
Test [30] deals with HIV-1 Env of isolate MGRM-F1-018 (clade F pseudovirus) (HIV-1). As to the kind of experiment: cell-based or functional assay.
Test [31] deals with HIV-1 Env of isolate MG RM-D-004 (clade D), on pseudovirus (HIV-1). Briefly: cell-based or functional assay.
Test [32] has as its target HIV-1 Env of isolate MG RM-D-008 (clade D), on pseudovirus (HIV-1). Briefly: cell-based or functional assay.
Test [33] has as its target HIV-1 Env of isolate MGRM-C-028 (clade C pseudovirus) (HIV-1). Briefly: cell-based or functional assay.
In test [34] the target is HIV-1 Env of isolate MG RM-D-014 (clade D), on pseudovirus (HIV-1). As to the kind of experiment: cell-based or functional assay.
Test [35] deals with Endo H treated JR-FL gp120 (HIV-1). As to the kind of experiment: ELISA, antigen-coated wells. On the technique in general: An ELISA detects its analyte on a solid surface through an enzyme-linked reagent.
Test [36] has as its target HIV-1 MGRM-D-001 envelope glycoprotein (Env) on pseudovirus (HIV-1). Briefly: cell-based or functional assay.
Test [37] concerns the target HIV-1 MGRM-A-010 envelope glycoprotein (Env) on pseudovirus (HIV-1). As to the kind of experiment: cell-based or functional assay.
The target in test [38] is HIV-1 APV13 envelope glycoprotein (Env) on pseudovirus (HIV-1). Briefly: cell-based or functional assay.
The target of test [39] is HIV-1 APV17 envelope glycoprotein (Env) on pseudovirus (HIV-1). Briefly: cell-based or functional assay.
Test [40] has as its target HIV-1 JRFL envelope glycoprotein (Env) on pseudovirus (HIV-1). Briefly: cell-based or functional assay.
Test [41] addresses HIV-1 92TH021 Env (pseudovirus) (HIV-1 isolate 92TH021 (clade AE)). As to the kind of experiment: cell-based or functional assay.

Sequence of 1443_C16 (PG16) (TCN-116) (antibody) (VH): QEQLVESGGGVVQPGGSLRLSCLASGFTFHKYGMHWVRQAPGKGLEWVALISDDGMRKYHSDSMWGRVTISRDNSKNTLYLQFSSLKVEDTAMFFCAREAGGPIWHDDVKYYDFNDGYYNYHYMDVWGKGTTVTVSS
Sequence of 1443_C16 (PG16) (TCN-116) (antibody) (VL): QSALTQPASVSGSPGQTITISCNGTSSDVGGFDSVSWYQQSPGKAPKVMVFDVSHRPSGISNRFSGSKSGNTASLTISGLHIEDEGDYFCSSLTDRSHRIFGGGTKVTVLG

As to 1443_C16 (PG16) (TCN-116) (antibody), the IC50 (ug/ml), pseudovirus neutralization, TZM-bl assay in test [1] was determined as 0.004 µg/mL. Moreover, in test [2], the Neutralizing Antibody Assay: IC50; Virus/Ab Incubation 1 hour was above 50 µg/mL and the Neutralizing Antibody Assay: IC50; Virus/Ab Incubation 18 hour is above 50 µg/mL.
Regarding 1495_C14 (PGC14) (antibody), in test [2], the Neutralizing Antibody Assay: IC50; Virus/Ab Incubation 1 hour was 1.17 µg/mL and the Neutralizing Antibody Assay: IC50; Virus/Ab Incubation 18 hour came to 0.244 µg/mL.
In the case of 1496_C09 (PG9) (TCN-109) (antibody), the IC50, pseudovirus neutralization turned out to be 1.06 µg/mL in test [3]; 0.023 µg/mL in [4]; 0.75 µg/mL in test [5]; 1.94 µg/mL in test [6]; 0.34 µg/mL in test [10]; 0.69 µg/mL in [14]. Besides, the IC50, pseudovirus neutralization in test [17] was 0.05 µg/mL; in test [18], 0.258 µg/mL; in test [25], 3.6 µg/mL; in [26] it was 0.027 µg/mL; in test [29], 0.006 µg/mL. Further, the IC50 (µg/mL), pseudovirus neutralization in [7] is 0.027 µg/mL; in [8] it was 8.78 µg/mL; in test [9] it was 0.004 µg/mL; in test [11], 19.3 µg/mL; in test [12], 20.2 µg/mL; in test [13], 0.688 µg/mL. For the same substance, the IC50 (µg/mL), pseudovirus neutralization in test [15] came out at 0.148 µg/mL; in test [16], 0.098 µg/mL; in [19], 23.7 µg/mL; in [20], 1.25 µg/mL; in test [21], 16.2 µg/mL; in [22], 3.44 µg/mL. In addition, the IC50 (µg/mL), pseudovirus neutralization came out at 0.2 µg/mL in test [23]; 0.033 µg/mL in test [24]; 0.227 µg/mL in test [27]; 0.181 µg/mL in [28]; 0.019 µg/mL in test [30]; 0.06 µg/mL in test [31]. Moreover, the IC50 (µg/mL), pseudovirus neutralization in [32] came out at 11.5 µg/mL; in test [33] it was 0.067 µg/mL; in [34], 0.023 µg/mL. The substance also showed an IC50 (ug/ml), pseudovirus neutralization, TZM-bl assay in test [1] of 0.2 µg/mL.
By EC50 is commonly meant the midpoint of the concentration-response curve. A low value points to higher potency in that assay. Regarding 4838_L06 (PGT-121) (antibody), the EC50 in [35] was above 10 µg/mL.
Consider 4858_P08 (PGT-123) (antibody), for which the neutralization IC50 in test [36] came out at 0.215 µg/mL; in test [37], 0.492 µg/mL; in test [38] it was 0.222 µg/mL; in test [39] it was 0.18 µg/mL; in test [40] it was 0.0283 µg/mL. Also, the neutralization IC80 in test [36] was 0.678 µg/mL; in test [37] it was 2.79 µg/mL; in test [38], 0.879 µg/mL; in test [39], 0.539 µg/mL; in test [40], 0.0904 µg/mL. The neutralization IC90 in test [36] worked out at 1.31 µg/mL; in test [37], 6.44 µg/mL; in test [38] it was 1.87 µg/mL; in test [39], 1.01 µg/mL; in test [40] it was 0.178 µg/mL. The neutralization IC95 in test [36] was 2.33 µg/mL; in [37], above 10 µg/mL; in test [38], 3.5 µg/mL; in test [39], 1.75 µg/mL; in test [40] it was 0.332 µg/mL.
In [41], 5123_A06 (PGT-125) (antibody) registered a Neutralization by PGT-125, IC50 of 0.0066 µg/mL; a Neutralization by PGT-125, IC80 of 0.0292 µg/mL; a Neutralization by PGT-125, IC90 of 0.0701 µg/mL; a Neutralization by PGT-125, IC95 of 0.157 µg/mL.
On to 5141_B17 (PGT-126) (antibody), for which the IC50, pseudovirus neutralization stood at 0.0639 µg/mL in test [36]; 0.0033 µg/mL in test [37]; 0.012 µg/mL in test [38]; 0.501 µg/mL in test [39]; 0.014 µg/mL in test [40]. The IC80 (pseudovirus neutralization) in test [36] worked out at 0.333 µg/mL; in [37], 0.0137 µg/mL; in test [38], 0.0411 µg/mL; in test [39], 4.43 µg/mL; in test [40], 0.0454 µg/mL. The IC90 (pseudovirus neutralization) in test [36] is 0.832 µg/mL; in [37] it was 0.0316 µg/mL; in test [38], 0.084 µg/mL; in test [39] it was above 10 µg/mL; in test [40] it was 0.09 µg/mL. For the same substance, the IC95 (pseudovirus neutralization) in [36] is 1.8 µg/mL; in test [37], 0.0687 µg/mL; in [38] it was 0.162 µg/mL; in test [39], above 10 µg/mL; in test [40], 0.169 µg/mL.
Take PGV04 (antibody): the IC50, pseudovirus neutralization was 7.21 µg/mL in test [3]; 0.033 µg/mL in test [4]; 0.134 µg/mL in test [5]; 0.128 µg/mL in test [6]; 0.202 µg/mL in test [10]; 0.54 µg/mL in [14]. The IC50, pseudovirus neutralization is 0.108 µg/mL in test [17]; 0.31 µg/mL in [18]; 4.46 µg/mL in test [25]; 0.038 µg/mL in [26]; 0.014 µg/mL in [29]. Further, the IC50 (µg/mL), pseudovirus neutralization was 0.139 µg/mL in test [7]; 0.166 µg/mL in [8]; 0.744 µg/mL in test [9]; 2.26 µg/mL in test [11]; 1.01 µg/mL in test [12]; 0.129 µg/mL in [13]. Also, the IC50 (µg/mL), pseudovirus neutralization was above 50 µg/mL in test [15]; 0.201 µg/mL in [16]; 1.76 µg/mL in test [19]; 0.084 µg/mL in test [20]; 0.125 µg/mL in test [21]; 0.142 µg/mL in test [22]. The IC50 (µg/mL), pseudovirus neutralization was above 50 µg/mL in [23]; above 50 µg/mL in test [24]; above 50 µg/mL in test [27]; 24.2 µg/mL in test [28]; 0.027 µg/mL in test [30]; 43.2 µg/mL in test [31]. Besides, the IC50 (µg/mL), pseudovirus neutralization was 3.56 µg/mL in [32], 0.149 µg/mL in [33] and 0.194 µg/mL in test [34].
